Experimental data taken from patent US7211395 (dated 2007).

Key:
chicken ovalbumin = target: T1, chicken ovalbumin (chicken, UniProt P01012); experiment: FP, pH 6.2, no NaCl
T1 chain: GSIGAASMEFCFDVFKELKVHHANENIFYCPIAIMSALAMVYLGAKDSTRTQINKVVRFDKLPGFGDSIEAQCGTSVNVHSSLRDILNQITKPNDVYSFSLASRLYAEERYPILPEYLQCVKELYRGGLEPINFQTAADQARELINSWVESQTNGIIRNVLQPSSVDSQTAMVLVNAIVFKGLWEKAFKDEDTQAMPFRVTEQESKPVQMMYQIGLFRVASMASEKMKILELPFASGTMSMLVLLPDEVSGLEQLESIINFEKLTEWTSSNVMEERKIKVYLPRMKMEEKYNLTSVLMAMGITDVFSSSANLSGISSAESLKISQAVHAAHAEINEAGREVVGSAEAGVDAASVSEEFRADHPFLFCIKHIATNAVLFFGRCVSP

rat serum albumin = target: T2, rat serum albumin (rat, UniProt P02770); experiment: FP, PBS pH 7.4
T2 chain: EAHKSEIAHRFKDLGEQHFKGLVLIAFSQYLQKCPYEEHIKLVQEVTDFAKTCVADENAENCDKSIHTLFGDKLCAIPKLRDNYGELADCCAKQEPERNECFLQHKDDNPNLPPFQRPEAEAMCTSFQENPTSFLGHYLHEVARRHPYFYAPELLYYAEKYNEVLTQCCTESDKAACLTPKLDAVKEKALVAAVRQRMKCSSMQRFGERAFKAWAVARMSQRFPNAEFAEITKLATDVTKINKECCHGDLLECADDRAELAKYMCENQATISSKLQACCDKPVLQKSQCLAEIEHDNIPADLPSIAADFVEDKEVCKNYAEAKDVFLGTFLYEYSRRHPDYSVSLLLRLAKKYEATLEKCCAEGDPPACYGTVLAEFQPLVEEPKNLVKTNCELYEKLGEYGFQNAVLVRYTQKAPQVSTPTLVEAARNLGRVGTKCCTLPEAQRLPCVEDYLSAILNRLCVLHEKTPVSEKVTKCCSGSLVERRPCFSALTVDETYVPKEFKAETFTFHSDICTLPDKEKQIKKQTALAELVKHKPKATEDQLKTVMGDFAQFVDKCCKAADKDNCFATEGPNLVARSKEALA

pig serum albumin = target: T3, pig serum albumin (pig, UniProt P08835); experiment: FP, pH 6.2, no NaCl
T3 chain: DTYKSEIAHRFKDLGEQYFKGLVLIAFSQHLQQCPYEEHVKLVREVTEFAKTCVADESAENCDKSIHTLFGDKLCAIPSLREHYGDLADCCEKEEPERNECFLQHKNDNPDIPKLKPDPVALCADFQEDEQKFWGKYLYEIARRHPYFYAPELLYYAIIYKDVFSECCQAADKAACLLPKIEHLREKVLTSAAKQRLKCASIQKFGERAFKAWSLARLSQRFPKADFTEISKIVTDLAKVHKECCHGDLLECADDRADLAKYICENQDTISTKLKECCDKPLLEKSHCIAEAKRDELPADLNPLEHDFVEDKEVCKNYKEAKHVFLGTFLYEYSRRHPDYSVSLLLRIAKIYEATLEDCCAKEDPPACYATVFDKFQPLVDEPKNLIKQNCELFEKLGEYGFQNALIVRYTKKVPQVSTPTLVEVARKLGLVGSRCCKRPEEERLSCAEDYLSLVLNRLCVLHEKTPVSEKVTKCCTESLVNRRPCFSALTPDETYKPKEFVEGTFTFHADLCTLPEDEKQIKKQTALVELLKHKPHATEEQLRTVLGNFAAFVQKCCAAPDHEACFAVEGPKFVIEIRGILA

rabbit serum albumin = target: T4, rabbit serum albumin (rabbit, UniProt P49065); experiment: FP, PBS pH 7.4
T4 chain: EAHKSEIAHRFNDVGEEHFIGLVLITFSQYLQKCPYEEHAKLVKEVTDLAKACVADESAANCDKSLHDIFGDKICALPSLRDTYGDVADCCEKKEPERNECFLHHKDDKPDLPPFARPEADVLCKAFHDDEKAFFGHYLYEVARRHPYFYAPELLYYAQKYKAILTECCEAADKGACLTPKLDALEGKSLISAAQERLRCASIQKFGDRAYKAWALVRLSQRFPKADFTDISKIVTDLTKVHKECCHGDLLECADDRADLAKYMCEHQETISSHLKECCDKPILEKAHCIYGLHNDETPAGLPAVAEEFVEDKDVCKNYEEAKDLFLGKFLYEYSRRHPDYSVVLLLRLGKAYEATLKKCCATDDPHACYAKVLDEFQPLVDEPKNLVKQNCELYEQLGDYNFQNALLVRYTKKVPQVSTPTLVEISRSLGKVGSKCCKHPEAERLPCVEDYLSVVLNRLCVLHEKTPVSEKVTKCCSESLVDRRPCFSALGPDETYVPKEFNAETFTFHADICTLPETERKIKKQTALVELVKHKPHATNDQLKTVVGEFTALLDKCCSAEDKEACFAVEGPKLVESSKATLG

rhesus serum albumin = target: T5, rhesus serum albumin (rhesus macaque, UniProt Q28522); experiment: FP, pH 6.2, no NaCl
T5 chain: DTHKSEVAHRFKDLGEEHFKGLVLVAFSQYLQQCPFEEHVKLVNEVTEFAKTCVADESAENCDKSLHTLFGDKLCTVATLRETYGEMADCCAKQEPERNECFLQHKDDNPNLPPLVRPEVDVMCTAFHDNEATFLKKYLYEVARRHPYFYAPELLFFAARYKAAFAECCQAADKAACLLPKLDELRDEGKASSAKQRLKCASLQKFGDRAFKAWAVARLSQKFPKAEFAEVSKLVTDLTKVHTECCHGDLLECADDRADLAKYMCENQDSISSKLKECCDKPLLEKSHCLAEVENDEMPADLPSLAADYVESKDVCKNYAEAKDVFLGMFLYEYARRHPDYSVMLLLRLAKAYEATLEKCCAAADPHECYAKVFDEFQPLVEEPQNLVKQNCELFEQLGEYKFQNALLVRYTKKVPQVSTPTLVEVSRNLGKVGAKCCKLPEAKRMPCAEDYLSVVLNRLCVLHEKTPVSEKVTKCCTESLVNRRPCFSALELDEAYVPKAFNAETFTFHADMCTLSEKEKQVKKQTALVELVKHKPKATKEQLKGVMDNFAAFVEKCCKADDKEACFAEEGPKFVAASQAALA

bovine serum albumin = bovine serum albumin (bovine, UniProt P02769); experiment: FP, pH 6.2, no NaCl
Sequence of bovine serum albumin (P02769 25-607): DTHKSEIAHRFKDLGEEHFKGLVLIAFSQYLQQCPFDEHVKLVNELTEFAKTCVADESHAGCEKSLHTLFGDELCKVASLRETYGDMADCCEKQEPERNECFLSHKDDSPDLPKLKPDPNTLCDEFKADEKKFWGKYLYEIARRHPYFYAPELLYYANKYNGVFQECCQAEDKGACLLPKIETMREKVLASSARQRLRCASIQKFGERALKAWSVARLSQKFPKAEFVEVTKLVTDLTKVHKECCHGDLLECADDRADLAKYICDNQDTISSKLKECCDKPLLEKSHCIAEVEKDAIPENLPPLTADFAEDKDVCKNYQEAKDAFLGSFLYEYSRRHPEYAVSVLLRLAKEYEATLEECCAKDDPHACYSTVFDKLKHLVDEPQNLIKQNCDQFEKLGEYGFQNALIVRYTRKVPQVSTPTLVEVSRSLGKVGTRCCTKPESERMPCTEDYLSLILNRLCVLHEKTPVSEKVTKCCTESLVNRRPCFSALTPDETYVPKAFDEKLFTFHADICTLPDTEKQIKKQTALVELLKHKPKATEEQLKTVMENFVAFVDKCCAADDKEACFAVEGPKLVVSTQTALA

Kd (chicken ovalbumin): > 200 µM | Kd (rat serum albumin): 117 µM | Kd (pig serum albumin): 21 µM | Kd (rabbit serum albumin): > 200 µM | Kd (rhesus serum albumin): 38 µM | Kd (bovine serum albumin): 21 µM
B1: DX-321 (peptide)
chain: AEGTGDRNMCKFSWIRSPAFCARADPEXK
modifications: disulfide cyclic, N-acetyl, C-amide, X = 6-aminohexanoic acid, fluorescein on Lys
